“Also recorded” adds a separate entry of the source. Like-named read-outs stand apart in the source and are kept apart here.
Legend:
[1] = system: Azocoll; assay: Azocoll-decomposing activity; assay type: biochemical; conditions: for SUBSTRATE SPECIFICITY: substrate Azocoll
[2] = system: Azocasein; assay: Substrate specificity, Azocasein; assay type: biochemical
Description: As a method for evaluating an influence on the fragmentation activity of PrB, the “lactase-fragmenting activity” can be also used as its index. This “lactase-fragmenting activity” indicates the enzyme activity of fragmenting the lactase protein, and an actual index can be defined as follows. When the band strength around 120 kDa of a sample to which PrB is not added is regarded as 100%, the band area relative value around 120 kDa of samples obtained by adding 1 to 4 mACU of PrB is found as a relative value (1 ACU means the amount of enzyme which raises the absorbance at 428 nm by 1 at 30° C. for an hour using azocasein as a substrate). Next, the amount of enzyme added when the lactase band after reaction at 30° C. for an hour decreases by 20% compared to when PrB is not added is regarded as 1 LDU (Lactase Degradation Unit) of lactase-fragmenting activity.

[3] = Substrate specificity, Bz-Tyr-pNa; assay type: biochemical
[4] = system: FITC-casein; assay: FITC-casein-decomposing activity; assay type: biochemical; conditions: for SUBSTRATE SPECIFICITY: substrate FITC-casein
[5] = system: lactase; assay: Lactase-fragmenting activity (LDU); assay type: biochemical, Kluyveromyces; conditions: for SUBSTRATE SPECIFICITY: substrate Lactase
Description: In addition, the “lactase-fragmenting action” in the claims and description can be an action by which the neutral lactase around 120 kDa in SDS-PAGE is fragmented, and preferably the fragments of the fragmented lactase show the neutral lactase activity. As a method for evaluating an influence on the fragmentation activity of PrB, the “lactase-fragmenting activity” can be also used as its index. This “lactase-fragmenting activity” indicates the enzyme activity of fragmenting the lactase protein, and an actual index can be defined as follows. When the band strength around 120 kDa of a sample to which PrB is not added is regarded as 100%, the band area relative value around 120 kDa of samples obtained by adding 1 to 4 mACU of PrB is found as a relative value (1 ACU means the amount of enzyme which raises the absorbance at 428 nm by 1 at 30° C. for an hour using azocasein as a substrate). Next, the amount of enzyme added when the lactase band after reaction at 30° C. for an hour decreases by 20% compared to when PrB is not added is regarded as 1 LDU (Lactase Degradation Unit) of lactase-fragmenting activity.

[6] = Substrate specificity, Bz-Arg-pNa; assay type: biochemical
[7] = Substrate specificity, Ac-Phe-pNa; assay type: biochemical
[8] = system: BSA; assay: Substrate specificity, BSA; assay type: biochemical
[9] = system: Casein; assay: Substrate specificity, Casein; assay type: biochemical
[10] = system: lactase; assay: Fragmentation of lactase confirmed by SDS-PAGE; assay type: biochemical, Kluyveromyces
Method: First, the state of fragmentation of lactase in a lactase solution can be confirmed by SDS-PAGE using 10% polyacrylamide gel. For example, a lactase solution is diluted with purified water as needed, and mixed with Sample Buffer for SDS-PAGE at 1:1, and electrophoresis samples are prepared by heat treatment at 100° C. for 3 minutes. Next, the standard and electrophoresis samples are applied to 10% acrylamide gel, and subjected to electrophoresis. The molecular weight of lactase can be also roughly estimated by comparison with the standard. As the standard, CLEARLY Stained Protein Ladder (Takara #3454A) and the like are used. The gel after electrophoresis is subjected to protein staining using a CBB staining solution (BIO-RAD #161-0786).
The gel after staining was scanned as a grayscale image with a scanner GT-X820 manufactured by Seiko Epson Corporation. Furthermore, the concentration of each band (protein amount) can be also measured by Image J software (NIH, Bethesda, Md.). […]
As prior consideration, the following test was carried out about a relationship between the fragmentation and heat stability of lactase. […] As the conditions of the heat stability test, using an enzyme solution (lactase solution) diluted to 0.25 NLU/g, the activity after treatment at 50° C. for 10 minutes was calculated as the remaining activity (%) to that of an untreated sample. […]

[11] = pH 7.0, cited from earlier work
[12] = FITC-casein-decomposing activity
[13] = FITC-casein-decomposing activity, listed as K. lactis

B1: S. cerevisiae: PrB derived from S. cerevisiae, comparison enzyme (protein, UniProt P09232 281-574, looked up)
Cerevisin: EFDTQNSAPWGLARISHRERLNLGSFNKYLYDDDAGRGVTSYVIDTGVNINHKDFEKRAIWGKTIPLNDEDLDGNGHGTHCAGTIASKHYGVAKNANVVAVKVLRSNGSGTMSDVVKGVEYAAKAHQKEAQEKKKGFKGSTANMSLGGGKSPALDLAVNAAVEVGIHFAVAAGNENQDACNTSPASADKAITVGASTLSDDRAYFSNWGKCVDVFAPGLNILSTYIGSDDATATLSGTSMASPHVAGLLTYFLSLQPGSDSEFFELGQDSLTPQQLKKKLIHYSTKDILFDIPE
[1]; Azocoll-decomposing activity
  HEAT STABILITY: 25 °C
  INHIBITOR: PCMB, PMSF,; also recorded: HgCl2
  OPTIMUM REACTION pH: pH 7.0
[1]
  SUBSTRATE SPECIFICITY: 9.1
[2]
  SUBSTRATE SPECIFICITY: 1
[3]
  SUBSTRATE SPECIFICITY: 0.2

B2: PrB: proteinase B derived from Kluyveromyces lactis, neutral protease with lactase-fragmenting activity, SEQ ID NO:1 (protein, listed as Kluyveromyces lactis)
chain: SFNTQNSAPWGLARISHREKLNLGSFNKYLYDDDAGKGVTAYVVDTGVNVNHKDFDGRAVWGKTIPKDDPDVDGNGHGTHCAGTIGSVHYGVAKNADIVAVKVLRSNGSGTMSDVVKGVEYVAEAHKKAVEEQKKGFKGSTANMSLGGGKSPALDLAVNAAVKAGVHFAVAAGNENQDACNTSPAAAENAITVGASTLSDERAYFSNWGKCVDIFGPGLNILSTYIGSDTATATLSGTSMATPHVVGLLTYFLSLQPDADSEYFHAAGGITPSQLKKKLIDFSTKNVLSDLPEDTVNY
[4]; [12]
  ACTIVATOR: Ca^2+
  HEAT STABILITY: 40 °C
  INHIBITOR: Cu^2+, Fe^2+
  OPTIMUM REACTION TEMPERATURE: about 40 °C
  OPTIMUM REACTION pH: about 8.0 pH
  pH STABILITY: 5.0 to 8.0 pH
[4]; [13]
  OPTIMUM REACTION TEMPERATURE: 40 °C
  OPTIMUM REACTION pH: pH 8.0
  pH STABILITY: pH 5.0~8.0
[4]
  SUBSTRATE SPECIFICITY: high substrate specificity
[4]; listed as K. lactis
  SUBSTRATE SPECIFICITY: 78
[5]; lactase-fragmenting activity
  INHIBITOR: AEBSF
  OPTIMUM REACTION TEMPERATURE: 40 °C
  OPTIMUM REACTION pH: pH 7.0
[5]
  SUBSTRATE SPECIFICITY: high substrate specificity
[5]; listed as K. lactis
  SUBSTRATE SPECIFICITY: 1159
[1]
  SUBSTRATE SPECIFICITY: 1.9
[2]
  SUBSTRATE SPECIFICITY: 1
[3]
  SUBSTRATE SPECIFICITY: 0
[6]
  SUBSTRATE SPECIFICITY: 0
[7]
  SUBSTRATE SPECIFICITY: 0
[8]
  SUBSTRATE SPECIFICITY: 0
[9]
  SUBSTRATE SPECIFICITY: 0
[10]
  state of fragmentation of lactase (SDS-PAGE): fragmentation of lactase proceeded
[10]; with respect to 1 NLU of lactase activity, added to F-1, 30° C. for 20 hours
  amount of PrB at which fragmentation was not caused: 0.26 ng

B3: lactase described in Patent Literature 1: lactase from cultures of a strain of Kluyveromyces lactis (JP 60-18394 B) (protein, UniProt P00723 1-1025, looked up)
Beta-galactosidase: MSCLIPENLRNPKKVHENRLPTRAYYYDQDIFESLNGPWAFALFDAPLDAPDAKNLDWETAKKWSTISVPSHWELQEDWKYGKPIYTNVQYPIPIDIPNPPTVNPTGVYARTFELDSKSIESFEHRLRFEGVDNCYELYVNGQYVGFNKGSRNGAEFDIQKYVSEGENLVVVKVFKWSDSTYIEDQDQWWLSGIYRDVSLLKLPKKAHIEDVRVTTTFVDSQYQDAELSVKVDVQGSSYDHINFTLYEPEDGSKVYDASSLLNEENGNTTFSTKEFISFSTKKNEETAFKINVKAPEHWTAENPTLYKYQLDLIGSDGSVIQSIKHHVGFRQVELKDGNITVNGKDILFRGVNRHDHHPRFGRAVPLDFVVRDLILMKKFNINAVRNSHYPNHPKVYDLFDKLGFWVIDEADLETHGVQEPFNRHTNLEAEYPDTKNKLYDVNAHYLSDNPEYEVAYLDRASQLVLRDVNHPSIIIWSLGNEACYGRNHKAMYKLIKQLDPTRLVHYEGDLNALSADIFSFMYPTFEIMERWRKNHTDENGKFEKPLILCEYGHAMGNGPGSLKEYQELFYKEKFYQGGFIWEWANHGIEFEDVSTADGKLHKAYAYGGDFKEEVHDGVFIMDGLCNSEHNPTPGLVEYKKVIEPVHIKIAHGSVTITNKHDFITTDHLLFIDKDTGKTIDVPSLKPEESVTIPSDTTYVVAVLKDDAGVLKAGHEIAWGQAELPLKVPDFVTETAEKAAKINDGKRYVSVESSGLHFILDKLLGKIESLKVKGKEISSKFEGSSITFWRPPTNNDEPRDFKNWKKYNIDLMKQNIHGVSVEKGSNGSLAVVTVNSRISPVVFYYGFETVQKYTIFANKINLNTSMKLTGEYQPPDFPRVGYEFWLGDSYESFEWLGRGPGESYPDKKESQRFGLYDSKDVEEFVYDYPQENGNHTDTHFLNIKFEGAGKLSIFQKEKPFNFKISDEYGVDEAAHACDVKRYGRHYLRLDHAIHGVGSEACGPAVLDQYRLKAQDFNFEFDLAFE
[11]; 50° C. for 10 minutes
  deactivated: 45%
[11]; 55° C. for 10 minutes
  deactivated: 100%

— US20190075806A1, “PROTEINASE B AND LACTASE SOLUTION USING ITS PROPERTIES AND METHOD FOR PRODUCING THE SAME” (GODO SHUSEI CO., LTD., priority 2016, published 2019)
